Data from US20030212252A1.

Molecular target: Dog MCH receptor (dog)
Experiment: cell-based or functional assay

Sequence of Dog MCH receptor (dog) (Q5IJ49 other isoform, or with tags, fused parts or gaps): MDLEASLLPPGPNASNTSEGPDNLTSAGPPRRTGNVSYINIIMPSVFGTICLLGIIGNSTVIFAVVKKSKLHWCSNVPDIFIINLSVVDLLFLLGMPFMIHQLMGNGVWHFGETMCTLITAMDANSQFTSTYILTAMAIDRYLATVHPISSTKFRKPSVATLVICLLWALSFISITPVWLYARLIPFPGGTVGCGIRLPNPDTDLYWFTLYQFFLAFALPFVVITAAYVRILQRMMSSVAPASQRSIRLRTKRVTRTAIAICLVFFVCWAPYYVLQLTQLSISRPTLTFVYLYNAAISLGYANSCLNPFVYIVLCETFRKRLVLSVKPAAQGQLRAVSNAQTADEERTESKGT

EC50 for activation of the dog MCH receptor (aequorin bioluminescence, fractional response, in transfected 293-AEQ17 cells): 30 nM
Substance: Melanin-concentrating hormone (MCH) (from UniProt P20382 147-165) (peptide)
